In article PMC3917317 (Cell, 2013):
The star is where a group is joined. FITC = O=C1OC2(c3ccc(O)cc3Oc3cc(O)ccc32)c2ccc(NC(=S)*)cc21; βAla = NCCC(=O)O

Tests used:
[1] = target: T1, His-EcGlpG C104A+H254A (inactive mutant) (Escherichia coli, UniProt P09391 1-276, C104A | H254A); assay: pull-down
T1 sequence (looked up): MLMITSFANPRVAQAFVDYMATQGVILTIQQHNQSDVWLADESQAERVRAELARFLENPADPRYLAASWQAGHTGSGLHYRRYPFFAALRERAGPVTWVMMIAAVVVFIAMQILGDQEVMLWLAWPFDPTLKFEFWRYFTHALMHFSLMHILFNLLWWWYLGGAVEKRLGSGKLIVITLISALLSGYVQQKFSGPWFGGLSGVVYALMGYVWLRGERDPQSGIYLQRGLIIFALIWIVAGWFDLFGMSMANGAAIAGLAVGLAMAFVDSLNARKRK

[2] = target: HA-EcGlpG S201A+H254A (inactive mutant) (Escherichia coli, UniProt P09391 1-276, S201A | H254A); assay: SEC

B1: FITC-TatA (Providencia stuartii TatA residues 1-33 of 97) (peptide)
chain: {FITC-βAla}-MESTIATAAFGSPWQLIIIALLIILIFGTKKLR-NH2
SMILES: CC[C@H](C)[C@H](NC(=O)[C@H](CC(C)C)NC(=O)[C@@H](NC(=O)[C@@H](NC(=O)[C@H](CC(C)C)NC(=O)[C@H](CC(C)C)NC(=O)[C@H](C)NC(=O)[C@@H](NC(=O)[C@@H](NC(=O)[C@@H](NC(=O)[C@H](CC(C)C)NC(=O)[C@H](CCC(N)=O)NC(=O)[C@H](Cc1c[nH]c2ccccc12)NC(=O)[C@@H]1CCCN1C(=O)[C@H](CO)NC(=O)CNC(=O)[C@H](Cc1ccccc1)NC(=O)[C@H](C)NC(=O)[C@H](C)NC(=O)[C@@H](NC(=O)[C@H](C)NC(=O)[C@@H](NC(=O)[C@@H](NC(=O)[C@H](CO)NC(=O)[C@H](CCC(=O)O)NC(=O)[C@H](CCSC)NC(=O)CCNC(=S)Nc1ccc2c(c1)C(=O)OC21c2ccc(O)cc2Oc2cc(O)ccc21)[C@@H](C)O)[C@@H](C)CC)[C@@H](C)O)[C@@H](C)CC)[C@@H](C)CC)[C@@H](C)CC)[C@@H](C)CC)[C@@H](C)CC)C(=O)N[C@@H](Cc1ccccc1)C(=O)NCC(=O)N[C@H](C(=O)N[C@@H](CCCCN)C(=O)N[C@@H](CCCCN)C(=O)N[C@@H](CC(C)C)C(=O)N[C@@H](CCCNC(=N)N)C(N)=O)[C@@H](C)O
Kd [1]: ≥ 1000 µM | Kd [2]: 191 ± 29.4 µM
